How the values were obtained:
Insulin receptor [1] = test: SPR (BIACORE 3000), insulin receptor immobilised on CM5 chip; Test 3
Insulin receptor [2] = test: SPR (BIACORE 3000), insulin receptor immobilised on CM5 chip; Test 2
Insulin receptor [3] = test: SPR (BIACORE 3000), insulin receptor immobilised on CM5 chip; Test 4
Insulin receptor [4] = test: SPR (BIACORE 3000), insulin receptor immobilised on CM5 chip; Test 5

Native insulin-immunoglobulin Fc conjugate
Kd (Insulin receptor [1]): 1240 nM | ka relative to native human insulin (Insulin receptor [1]): 2.7% | kd relative to native human insulin (Insulin receptor [1]): 54.5% | koff (Insulin receptor [1]): 0.00585 s⁻¹ | kon (Insulin receptor [1]): 5000 M⁻¹ s⁻¹ | receptor binding affinity (KD) relative to native human insulin (Insulin receptor [1]): 5.1% | Kd (Insulin receptor [2]): 781 nM | ka relative to native human insulin (Insulin receptor [2]): 3.9% | kd relative to native human insulin (Insulin receptor [2]): 77.2% | koff (Insulin receptor [2]): 0.0078 s⁻¹ | kon (Insulin receptor [2]): 9000 M⁻¹ s⁻¹ | receptor binding affinity (KD) relative to native human insulin (Insulin receptor [2]): 5.9% | Kd (Insulin receptor [3]): 1140 nM | ka relative to native human insulin (Insulin receptor [3]): 2.1% | kd relative to native human insulin (Insulin receptor [3]): 56.1% | koff (Insulin receptor [3]): 0.0069 s⁻¹ | receptor binding affinity (KD) relative to native human insulin (Insulin receptor [3]): 3.7% | Kd (Insulin receptor [4]): 862 nM | ka relative to native human insulin (Insulin receptor [4]): 4.3% | kd relative to native human insulin (Insulin receptor [4]): 76.5% | koff (Insulin receptor [4]): 0.0074 s⁻¹ | kon (Insulin receptor [4]): 9000 M⁻¹ s⁻¹ | receptor binding affinity (KD) relative to native human insulin (Insulin receptor [4]): 5.9%

Source: patent publication US20170101455A1
